Substitutions are numbered along the chain they refer to. Names may count otherwise. Each block holds one binder with its values, some of them ahead of it.
Legend:
Test in all cases: SPR (Biacore), FcγR over captured antibody; binding amount / that of IL6R-BF648/IL6R-L x100
human FcγRIa = target: T1, human FcγRIa (human, UniProt P12314 16-292, limits assumed)
T1 construct: also called FcgRIa; CD64
Experimental: (§1) According to the following method, relative binding activities were calculated for the results of analyzing interactions with the respective FcγRs.

human FcγRIIa type R = target: T2, human FcγRIIa type R (human, UniProt P12318 36-217)
T2 construct: also called FcgRIIaR; FcγRIIa(R)
T2 chain: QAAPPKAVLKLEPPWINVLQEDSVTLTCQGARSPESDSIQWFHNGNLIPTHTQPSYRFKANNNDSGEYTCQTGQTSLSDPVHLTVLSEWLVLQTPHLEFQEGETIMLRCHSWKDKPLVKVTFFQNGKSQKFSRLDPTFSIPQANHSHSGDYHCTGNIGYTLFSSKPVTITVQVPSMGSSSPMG
Experimental: as §1

human FcγRIIa type H = target: T3, human FcγRIIa type H (human, UniProt P12318 36-217)
T3 construct: also called FcgRIIaH; FcγRIIa(H)
T3 sequence: T2 chain with R133H
Experimental: as §1

human FcγRIIb = target: T4, human FcγRIIb (human, UniProt P31994 43-217)
T4 construct: also called FcgRIIb; FcγIIB
T4 sequence: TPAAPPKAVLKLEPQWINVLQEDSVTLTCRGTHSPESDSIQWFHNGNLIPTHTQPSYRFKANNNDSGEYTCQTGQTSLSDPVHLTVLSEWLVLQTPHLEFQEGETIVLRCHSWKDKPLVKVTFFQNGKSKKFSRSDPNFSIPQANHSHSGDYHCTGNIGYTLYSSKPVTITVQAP
Experimental: as §1

human FcγRIIIa type V = target: T5, human FcγRIIIa type V (human, UniProt P08637 17-208, limits assumed)
T5 construct: Allotype V158 was used; also called FcgRIIIaV; FcγRIIIa(V)
T5 sequence (P08637 other isoform, or with tags, fused parts or gaps limits assumed): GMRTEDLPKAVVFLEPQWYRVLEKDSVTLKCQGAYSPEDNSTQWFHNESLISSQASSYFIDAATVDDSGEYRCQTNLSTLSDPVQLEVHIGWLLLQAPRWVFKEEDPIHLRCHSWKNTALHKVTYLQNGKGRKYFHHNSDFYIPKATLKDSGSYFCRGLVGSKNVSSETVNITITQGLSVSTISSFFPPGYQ
Experimental: as §1

T1 sequence (P12314 16-292 limits assumed): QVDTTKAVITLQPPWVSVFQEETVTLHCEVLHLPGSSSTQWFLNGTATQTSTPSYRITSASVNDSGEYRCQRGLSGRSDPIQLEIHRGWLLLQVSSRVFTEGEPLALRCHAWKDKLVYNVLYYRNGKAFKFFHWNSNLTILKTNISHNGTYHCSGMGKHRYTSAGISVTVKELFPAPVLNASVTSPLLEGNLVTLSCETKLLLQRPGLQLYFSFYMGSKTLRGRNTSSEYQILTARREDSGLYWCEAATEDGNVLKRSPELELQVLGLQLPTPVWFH

relative binding activity (human FcγRIa): 86 % of IL6R-BF648/IL6R-L | relative binding activity (human FcγRIIa type R): 238 % of IL6R-BF648/IL6R-L | relative binding activity (human FcγRIIa type H): 143 % of IL6R-BF648/IL6R-L | relative binding activity (human FcγRIIb): 133 % of IL6R-BF648/IL6R-L | relative binding activity (human FcγRIIIa type V): 114 % of IL6R-BF648/IL6R-L
B1: IL6R-BP143/IL6R-L (antibody, human IgG1)
heavy: QVQLQESGPGLVKPSETLSLTCAVSGHSISHDHAWSWVRQPPGEGLEWIGFISYSGITNYNPSLQGRVTISRDNSKNTLYLQMNSLRAEDTAVYYCARSLARTTAMDYWGEGTLVTVSSASTKGPSVFPLAPSSKSTSGGTAALGCLVKDYFPEPVTVSWNSGALTSGVHTFPAVLQSSGLYSLSSVVTVPSSSLGTQTYICNVNHKPSNTKVDKKVEPKSCDKTHTCPPCPAPEYLGGDSVFLFPPKPKDTLMISRTPEVTCVVVDVSHEDPEVKFNWYVDGVEVHNAKTKPREEQYNSTYRVVSVLTVLHQDWLNGKEYKCKVSNAALPAPIEKTISKAKGQPREPQVYTLPPSRDELTKNQVSLTCLVKGFYPSDIAVEWESNGQPENNYKTTPPVLDSDGSFFLYSKLTVDKSRWQQGNVFSCSVMHEALHNHYTQESLSLSP
light: DIQMTQSPSSLSASVGDRVTITCRASQDISSYLNWYQQKPGKAPKLLIYYTSRLHSGVPSRFSGSGSGTDFTFTISSLQPEDIATYYCQQGNTLPYTFGQGTKVEIK

relative binding activity (human FcγRIa): 64 % of IL6R-BF648/IL6R-L | relative binding activity (human FcγRIIa type R): 204 % of IL6R-BF648/IL6R-L | relative binding activity (human FcγRIIa type H): 108 % of IL6R-BF648/IL6R-L | relative binding activity (human FcγRIIb): 121 % of IL6R-BF648/IL6R-L | relative binding activity (human FcγRIIIa type V): 128 % of IL6R-BF648/IL6R-L
B2: IL6R-BP144/IL6R-L (antibody, human IgG1)
heavy: B1 heavy with Y236L, G239D
light: B1 light

relative binding activity (human FcγRIa): 30 % of IL6R-BF648/IL6R-L | relative binding activity (human FcγRIIa type R): 757 % of IL6R-BF648/IL6R-L | relative binding activity (human FcγRIIa type H): 770 % of IL6R-BF648/IL6R-L | relative binding activity (human FcγRIIb): 183 % of IL6R-BF648/IL6R-L | relative binding activity (human FcγRIIIa type V): 204 % of IL6R-BF648/IL6R-L
B6: IL6R-BP150/IL6R-L (antibody, human IgG1)
heavy: B1 heavy with G239D, A332R
light: B1 light

relative binding activity (human FcγRIa): 29 % of IL6R-BF648/IL6R-L | relative binding activity (human FcγRIIa type R): 539 % of IL6R-BF648/IL6R-L | relative binding activity (human FcγRIIa type H): 401 % of IL6R-BF648/IL6R-L | relative binding activity (human FcγRIIb): 173 % of IL6R-BF648/IL6R-L | relative binding activity (human FcγRIIIa type V): 186 % of IL6R-BF648/IL6R-L
B7: IL6R-BP149/IL6R-L (antibody, human IgG1)
heavy: B1 heavy with E235D, G239D, Y298D, A332K
light: B1 light

relative binding activity (human FcγRIa): 91 % of IL6R-BF648/IL6R-L | relative binding activity (human FcγRIIa type R): 191 % of IL6R-BF648/IL6R-L | relative binding activity (human FcγRIIa type H): 130 % of IL6R-BF648/IL6R-L | relative binding activity (human FcγRIIb): 150 % of IL6R-BF648/IL6R-L | relative binding activity (human FcγRIIIa type V): 120 % of IL6R-BF648/IL6R-L
B9: IL6R-BP132/IL6R-L (antibody, human IgG1)
heavy: B1 heavy with E235D, Y236L, A332K
light: B1 light

relative binding activity (human FcγRIa): 43 % of IL6R-BF648/IL6R-L | relative binding activity (human FcγRIIa type R): 222 % of IL6R-BF648/IL6R-L | relative binding activity (human FcγRIIa type H): 186 % of IL6R-BF648/IL6R-L | relative binding activity (human FcγRIIb): 147 % of IL6R-BF648/IL6R-L | relative binding activity (human FcγRIIIa type V): 136 % of IL6R-BF648/IL6R-L
B11: IL6R-BP089/IL6R-L (antibody, human IgG1)
heavy: B1 heavy with A332K
light: B1 light

More lines, now with the values behind:

B3: IL6R-2B253/IL6R-L (antibody, human IgG1)
heavy: B1 heavy with E235D, Y236L, V325M, A328K
light: B1 light
relative binding activity (human FcγRIa): 155 % of IL6R-BF648/IL6R-L | relative binding activity (human FcγRIIa type R): 288 % of IL6R-BF648/IL6R-L | relative binding activity (human FcγRIIa type H): 207 % of IL6R-BF648/IL6R-L | relative binding activity (human FcγRIIb): 156 % of IL6R-BF648/IL6R-L | relative binding activity (human FcγRIIIa type V): 126 % of IL6R-BF648/IL6R-L

B4: IL6R-BP086/IL6R-L (antibody, human IgG1)
heavy: B1 heavy with Y236L, A332K
light: B1 light
relative binding activity (human FcγRIa): 72 % of IL6R-BF648/IL6R-L | relative binding activity (human FcγRIIa type R): 155 % of IL6R-BF648/IL6R-L | relative binding activity (human FcγRIIa type H): 116 % of IL6R-BF648/IL6R-L | relative binding activity (human FcγRIIb): 137 % of IL6R-BF648/IL6R-L | relative binding activity (human FcγRIIIa type V): 123 % of IL6R-BF648/IL6R-L

B5: IL6R-2B261/IL6R-L (antibody, human IgG1)
heavy: B1 heavy with E235D, Y236L, Y298D, A328K
light: B1 light
relative binding activity (human FcγRIa): 100 % of IL6R-BF648/IL6R-L | relative binding activity (human FcγRIIa type R): 94 % of IL6R-BF648/IL6R-L | relative binding activity (human FcγRIIa type H): 91 % of IL6R-BF648/IL6R-L | relative binding activity (human FcγRIIb): 115 % of IL6R-BF648/IL6R-L | relative binding activity (human FcγRIIIa type V): 87 % of IL6R-BF648/IL6R-L

B8: IL6R-BP085/IL6R-L (antibody, human IgG1)
heavy: B1 heavy with Y236L, G239D, A328K, A332K
light: B1 light
relative binding activity (human FcγRIa): 19 % of IL6R-BF648/IL6R-L | relative binding activity (human FcγRIIa type R): 279 % of IL6R-BF648/IL6R-L | relative binding activity (human FcγRIIa type H): 158 % of IL6R-BF648/IL6R-L | relative binding activity (human FcγRIIb): 152 % of IL6R-BF648/IL6R-L | relative binding activity (human FcγRIIIa type V): 104 % of IL6R-BF648/IL6R-L

B10: IL6R-BP083/IL6R-L (antibody, human IgG1)
heavy: B1 heavy with Y236L, Y298D, A328K, A332K
light: B1 light
notes: The variants were built on IL6R-BF648 (P238D), so it is read as P238D
relative binding activity (human FcγRIa): 50 % of IL6R-BF648/IL6R-L | relative binding activity (human FcγRIIa type R): 87 % of IL6R-BF648/IL6R-L | relative binding activity (human FcγRIIa type H): 91 % of IL6R-BF648/IL6R-L | relative binding activity (human FcγRIIb): 122 % of IL6R-BF648/IL6R-L | relative binding activity (human FcγRIIIa type V): 107 % of IL6R-BF648/IL6R-L
